Among the data in PMC4106346, “The Oligomeric States of the Purified Sigma-1 Receptor Are Stabilized by Ligands” (The Journal of Biological Chemistry, 2014) are response values, retold here.

First the molecules themselves.
B1: TM2 domain of in the TOXCAT construct (between MBP and ToxR) [guinea pig] / itself (parent)
chain: WVFVNAGGWMGAMCLLHASL

The assay covers variants of B1. The assay can be described thus: TOXCAT. Conditions: with itself;; read off a plot.
As to WVFVNAIGWMGAMCLLHASL [chain 1 G7I], the response was determined as 94 %GpA.
In the case of WVFVNALGWMGAMCLLHASL [chain 1 G7L], the response turned out to be 77 %GpA.
Turning to WVFVNAGGWMGAMCLLAASL [chain 1 H17A], the response amounted to 20 %GpA.
As for WVFVNAGIWMGAMCLLHASL [chain 1 G8I], the response turned out to be 100 %GpA.
For the variant WVFVNAGLWMGAMCLLHASL [chain 1 G8L], the response is 89 %GpA.
For the variant WVFVNALLWMGAMCLLHASL [chain 1 G7L G8L], the response was -2.7 %GpA.
